Consider two molecules from patent US20220119534A1 (DRAGONFLY THERAPEUTICS, published 2022).

In test [1] the target is T1, Human CLEC12A-His (human, UniProt Q5QGZ9 65-265).
T1 construct: Recombinant soluble protein made in house (Dragonfly Tx); The hCLEC12A spot of the HuProt array is written under this molecule as well; also called hCLEC12A-His; hCLEC12A; not shown: His tag
T1 sequence: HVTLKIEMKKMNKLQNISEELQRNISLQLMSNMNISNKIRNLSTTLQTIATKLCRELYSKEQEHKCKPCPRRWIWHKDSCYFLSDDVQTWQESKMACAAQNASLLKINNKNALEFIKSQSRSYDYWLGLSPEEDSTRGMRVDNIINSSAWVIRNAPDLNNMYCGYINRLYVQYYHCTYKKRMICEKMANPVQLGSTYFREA
Kind of test: SPR Biacore 8K 37 C; TriNKET captured on anti-hFc chip, hCLEC12A-His as analyte; 1:1 fit; after 2 wks 2-8 C in CST pH 7.0, n=2. (Surface plasmon resonance follows binding to a sensor surface in real time, without labels.)

The target in test [2] is T2, mFc-hNKG2D (human, UniProt P26718 73-216).
T2 construct: extracellular domain; Made in house (Dragonfly Tx); the order of tag and ECD follows the name mFc-hNKG2D; also called mFc-tagged human NKG2D; not shown: mouse Fc tag
T2 sequence (looked up): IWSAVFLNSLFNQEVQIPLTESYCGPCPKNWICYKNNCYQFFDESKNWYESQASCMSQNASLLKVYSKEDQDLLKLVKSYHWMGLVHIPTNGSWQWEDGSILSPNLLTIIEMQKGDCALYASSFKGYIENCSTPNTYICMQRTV
Briefly: SPR Biacore 8K 37 C; mFc-hNKG2D captured on anti-mFc chip, TriNKET as analyte; steady state affinity fit; average of 4.

Test [3] addresses T1, Human CLEC12A-His. Kind of test: SPR Biacore 8K 37 C; TriNKET captured on anti-hFc chip, hCLEC12A-His as analyte; 1:1 fit; after 4 wks 40 C in CST pH 7.0, n=2.
Test [4] concerns the target T3, Human CD16a V158 (FcγRIIIa V158) (human, UniProt P08637 17-208, biotinylated (site not stated)).
T3 construct: V158 is the allele name in mature numbering; also called hCD16aV; hCD16a V158
Kind of test: SPR; biotinylated CD16a V158 captured on SA chip, TriNKET as analyte; 1:1 kinetic fit; control, n=3.

For test [5], the target named is T1, Human CLEC12A-His. Briefly: SPR Biacore 8K 37 C; TriNKET captured on anti-hFc chip, hCLEC12A-His as analyte; 1:1 fit; after 4 wks 2-8 C in CST pH 7.0, n=2.
In test [6] the target is T2, mFc-hNKG2D. Kind of test: SPR Biacore 8K 37 C; mFc-hNKG2D captured on anti-mFc chip, TriNKET as analyte; 1:1 kinetic fit; after 2 wks 40 C at pH 5.0.
The target of test [7] is T4, human CLEC12A on cells (HL60, PL21, Ba/F3-hCLEC12A) (human, UniProt Q5QGZ9 1-265).
T4 construct: Endogenous on the AML lines HL60 and PL21; brought into mouse Ba/F3 cells by retroviral transduction; The cell line stands under assay; also called CLL-1
T4 sequence: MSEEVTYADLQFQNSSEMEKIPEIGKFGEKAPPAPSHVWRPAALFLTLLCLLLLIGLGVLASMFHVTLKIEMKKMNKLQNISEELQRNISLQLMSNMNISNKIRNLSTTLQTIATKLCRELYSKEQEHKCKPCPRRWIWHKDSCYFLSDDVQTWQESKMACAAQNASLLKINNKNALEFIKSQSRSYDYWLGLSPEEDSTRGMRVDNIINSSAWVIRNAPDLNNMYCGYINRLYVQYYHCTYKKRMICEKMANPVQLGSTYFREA
Kind of test: flow cytometry, Ba/F3-hCLEC12A cells. Background: In flow cytometry, cells or beads pass a laser one at a time.

A further test deals with T5, De-sialylated CLEC12A (human, UniProt Q5QGZ9 65-265, treated with neuraminidase (terminal sialic acids removed)).
T5 construct: Recombinant human CLEC12A after neuraminidase; also called de-sialylated hCLEC12A
T5 sequence: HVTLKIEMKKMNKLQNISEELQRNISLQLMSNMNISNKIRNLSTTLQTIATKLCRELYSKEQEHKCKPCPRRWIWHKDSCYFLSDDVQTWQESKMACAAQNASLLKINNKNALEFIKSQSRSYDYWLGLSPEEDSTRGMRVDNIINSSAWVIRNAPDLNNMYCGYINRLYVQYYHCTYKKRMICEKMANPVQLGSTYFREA
Briefly: SPR, de-sialylated CLEC12A; average of 3 replicates.

T3 sequence (P08637 17-208 F176V limits assumed): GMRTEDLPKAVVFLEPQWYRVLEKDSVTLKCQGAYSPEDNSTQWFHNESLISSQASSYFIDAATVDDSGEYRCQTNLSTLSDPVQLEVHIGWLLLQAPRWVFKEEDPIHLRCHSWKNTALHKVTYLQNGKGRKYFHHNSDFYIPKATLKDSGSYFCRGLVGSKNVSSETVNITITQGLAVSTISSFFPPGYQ

B1: F3'-1602 TriNKET (bispecific antibody, human IgG1, kappa)
chain: QLQLQESGPGLVKPSETLSLTCTVSGFSLTNYGLHWIRQPPGKCLEWIGVIWSGGKTDYNPSLKSRVTISKDTSKNQFSLKLSSVQAADTAVYYCAKYDYDDSLDYWGQGTLVTVSSGGGGSGGGGSGGGGSGGGGSDIQMTQSPSSLSASVGDRVTITCHASQNINFWLSWYQQKPGKAPKLLIYEASNLHTGVPSRFSGSGSGTRFTLTISSLQPEDIATYYCQQSHSYPLTFGCGTKLEIKGSDKTHTCPPCPAPELLGGPSVFLFPPKPKDTLMISRTPEVTCVVVDVSHEDPEVKFNWYVDGVEVHNAKTKPREEQYNSTYRVVSVLTVLHQDWLNGKEYKCKVSNKALPAPIEKTISKAKGQPREPRVYTLPPCRDELTKNQVSLTCLVKGFYPSDIAVEWESNGQPENNYKTTPPVLVSDGSFTLYSKLTVDKSRWQQGNVFSCSVMHEALHNHYTQKSLSLSPG
heavy: EVQLVESGGGLVKPGGSLRLSCAASGFTFSSYSMNWVRQAPGKGLEWVSSISSSSSYIYYADSVKGRFTISRDNAKNSLYLQMNSLRAEDTAVYYCARGAPIGAAAGWFDPWGQGTLVTVSSASTKGPSVFPLAPSSKSTSGGTAALGCLVKDYFPEPVTVSWNSGALTSGVHTFPAVLQSSGLYSLSSVVTVPSSSLGTQTYICNVNHKPSNTKVDKKVEPKSCDKTHTCPPCPAPELLGGPSVFLFPPKPKDTLMISRTPEVTCVVVDVSHEDPEVKFNWYVDGVEVHNAKTKPREEQYNSTYRVVSVLTVLHQDWLNGKEYKCKVSNKALPAPIEKTISKAKGQPREPQVCTLPPSRDELTENQVSLTCLVKGFYPSDIAVEWESNGQPENNYKTTPPVLDSDGSFFLYSWLTVDKSRWQQGNVFSCSVMHEALHNHYTQKSLSLSPG
light: DIQMTQSPSSVSASVGDRVTITCRASQGISSWLAWYQQKPGKAPKLLIYAASSLQSGVPSRFSGSGSGTDFTLTISSLQPEDFATYYCQQGVSFPRTFGGGTKVEIKRTVAAPSVFIFPPSDEQLKSGTASVVCLLNNFYPREAKVQWKVDNALQSGNSQESVTEQDSKDSTYSLSSTLTLSKADYEKHKVYACEVTHQGLSSPVTKSFNRGEC
notes: Trispecific F3' format: CLEC12A scFv-Fc paired with NKG2D Fab-Fc; Stressed and control samples of the stability studies are the same molecule; also called AB0237
As for B1, the Kd in the test with Human CLEC12A-His [1] is 0.89 nM; in the test with mFc-hNKG2D [2] it was 727 nM; with Human CLEC12A-His [3] it was 0.86 nM; in test [4], 212 nM; with Human CLEC12A-His [5], 0.91 nM; in the test with mFc-hNKG2D [6], 675 nM. The koff with Human CLEC12A-His [1] came out at 0.0006 s⁻¹; in the test with Human CLEC12A-His [3] it was 0.000674 s⁻¹; in test [4], 0.024 s⁻¹; with Human CLEC12A-His [5], 0.000708 s⁻¹; in the test with mFc-hNKG2D [6] it was 0.127 s⁻¹. Further, the kon with Human CLEC12A-His [1] stood at 672000 M⁻¹ s⁻¹; in the test with Human CLEC12A-His [3], 784000 M⁻¹ s⁻¹; in test [4], 113000 M⁻¹ s⁻¹; with Human CLEC12A-His [5], 776000 M⁻¹ s⁻¹; with mFc-hNKG2D [6] it was 188000 M⁻¹ s⁻¹.

B2: AB0192 TriNKET (other)
chain: EVQLVESGGGVVQPGGSLRLSCAASGFTFNAFGMHWVRQAPGKCLEWVAFISSGSTSIYYANTVKGRFTISRDNSKNTLYLQMNSLRAEDTAVYYCARDGYPTGGAMDYWGQGTSVTVSSGGGGSGGGGSGGGGSGGGGSDIQMTQSPSSLSASVGDRVTITCKASQDIYNYLSWFQQKPGKAPKPLIYRANILVSGVPSRFSGSGSGQDYTFTISSLQPEDIATYYCLQFDAFPFTFGCGTKLEIKGSDKTHTCPPCPAPELLGGPSVFLFPPKPKDTLMISRTPEVTCVVVDVSHEDPEVKFNWYVDGVEVHNAKTKPREEQYNSTYRVVSVLTVLHQDWLNGKEYKCKVSNKALPAPIEKTISKAKGQPREPRVYTLPPCRDELTKNQVSLTCLVKGFYPSDIAVEWESNGQPENNYKTTPPVLVSDGSFTLYSKLTVDKSRWQQGNVFSCSVMHEALHNHYTQKSLSLSPG
heavy: EVQLVESGGGLVKPGGSLRLSCAASGFTFSSYSMNWVRQAPGKGLEWVSSISSSSSYIYYADSVKGRFTISRDNAKNSLYLQMNSLRAEDTAVYYCARGAPIGAAAGWFDPWGQGTLVTVSSASTKGPSVFPLAPSSKSTSGGTAALGCLVKDYFPEPVTVSWNSGALTSGVHTFPAVLQSSGLYSLSSVVTVPSSSLGTQTYICNVNHKPSNTKVDKKVEPKSCDKTHTCPPCPAPELLGGPSVFLFPPKPKDTLMISRTPEVTCVVVDVSHEDPEVKFNWYVDGVEVHNAKTKPREEQYNSTYRVVSVLTVLHQDWLNGKEYKCKVSNKALPAPIEKTISKAKGQPREPQVCTLPPSRDELTENQVSLTCLVKGFYPSDIAVEWESNGQPENNYKTTPPVLDSDGSFFLYSWLTVDKSRWQQGNVFSCSVMHEALHNHYTQKSLSLSPG
light: DIQMTQSPSSVSASVGDRVTITCRASQGISSWLAWYQQKPGKAPKLLIYAASSLQSGVPSRFSGSGSGTDFTLTISSLQPEDFATYYCQQGVSFPRTFGGGTKVEIKRTVAAPSVFIFPPSDEQLKSGTASVVCLLNNFYPREAKVQWKVDNALQSGNSQESVTEQDSKDSTYSLSSTLTLSKADYEKHKVYACEVTHQGLSSPVTKSFNRGEC
notes: the condition stands under assay; also called AB0192 Lot AB0192-005
Consider B2, for which, in test [7], the 50% effective concentration (EC50) stood at 0.91 nM. Besides, in the test with De-sialylated CLEC12A, the affinity, expressed as Kd, was 1.04 nM; the koff is 0.00104 s⁻¹; the kon was found to be 1.01e+06 M⁻¹ s⁻¹.

The term Kd denotes the free concentration of one partner at which half of the binding sites on the other are occupied at equilibrium, for simple one-to-one binding. A higher Kd goes with lower affinity. In general, koff refers to the first-order rate constant of dissociation. A lower koff goes with slow dissociation. A word on the kon: it is a measure of how fast the partners come together. The term EC50 denotes the midpoint of the concentration-response curve. A higher EC50 goes with a need for much substance.
